The numbers were not newly measured in publication doi:10.1101/2024.09.05.611512, which cites them from elsewhere.

The target of one data set is S100A10 (Homo sapiens) (UniProt P60903).
The target in data set [1] is calpain 1 & 2 (Homo sapiens) (UniProt P07384).
UniProt P07384, sequence (P07384 2-714): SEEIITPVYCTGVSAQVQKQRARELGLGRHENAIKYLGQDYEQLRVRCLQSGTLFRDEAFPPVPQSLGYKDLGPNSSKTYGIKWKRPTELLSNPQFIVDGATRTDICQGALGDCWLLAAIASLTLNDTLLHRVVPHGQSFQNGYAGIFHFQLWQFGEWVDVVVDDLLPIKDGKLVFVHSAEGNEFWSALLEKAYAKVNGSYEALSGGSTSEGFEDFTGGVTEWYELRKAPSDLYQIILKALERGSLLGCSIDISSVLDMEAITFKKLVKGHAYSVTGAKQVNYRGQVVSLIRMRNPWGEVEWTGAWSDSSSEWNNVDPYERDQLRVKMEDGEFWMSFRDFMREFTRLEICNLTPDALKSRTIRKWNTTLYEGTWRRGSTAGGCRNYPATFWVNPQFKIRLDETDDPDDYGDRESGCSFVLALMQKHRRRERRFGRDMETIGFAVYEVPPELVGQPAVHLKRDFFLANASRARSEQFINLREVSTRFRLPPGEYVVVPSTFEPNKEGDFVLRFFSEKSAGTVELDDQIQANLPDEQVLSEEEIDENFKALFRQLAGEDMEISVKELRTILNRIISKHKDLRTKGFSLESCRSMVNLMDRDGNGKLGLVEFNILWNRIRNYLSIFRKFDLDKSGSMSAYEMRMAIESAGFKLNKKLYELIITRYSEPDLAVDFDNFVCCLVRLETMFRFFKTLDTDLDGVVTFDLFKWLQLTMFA

UniProt P60903, sequence (P60903 whole entry): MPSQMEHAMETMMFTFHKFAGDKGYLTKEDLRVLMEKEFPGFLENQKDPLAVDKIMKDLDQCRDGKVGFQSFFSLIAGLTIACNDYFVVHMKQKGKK

Consider “annexin A2 first 10-12 residues (from UniProt P07355)”, for which the dissociation constant Kd (in general, the constant that tells how readily two partners part at equilibrium) with S100A10 (Homo sapiens) was 13 nM.
Consider “calpastatin domain I (from UniProt P20810)”, for which, in data set [1], the inhibition constant (Ki) (as a rule, a dissociation constant, usually derived from enzyme kinetics or from competition with a known ligand) is 15 nM.
